Series [1] has as its target carbohydrate antigen 15-3 (CA15-3) (UniProt P15941 24-1097). The series is described as follows: electrochemiluminescence aptasensor; selectivity test; no significant ECL decrease; CRP incubation 4 °C, 1 h on BSA-blocked aptamer electrode; wash 0.01 M PBS pH 7.4; ECL read in 3 mM TPA, 0.01 M PBS pH 7.4, room temperature. Conditions: protein: commercial.
Series [2] concerns the target carcinoembryonic antigen (CEA) (UniProt P06731 35-685). The series is described as above. The conditions noted are these: protein: commercial.
In the next series the target is T1, C-reactive protein (CRP) (UniProt P02741 19-224).
T1 sequence: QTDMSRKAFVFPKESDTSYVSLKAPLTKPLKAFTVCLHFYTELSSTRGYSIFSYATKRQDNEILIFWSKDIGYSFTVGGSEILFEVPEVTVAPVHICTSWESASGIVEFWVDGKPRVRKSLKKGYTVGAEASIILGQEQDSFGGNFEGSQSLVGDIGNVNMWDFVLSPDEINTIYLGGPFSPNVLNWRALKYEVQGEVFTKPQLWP
The series is described as follows: electrochemiluminescence aptasensor; linear response 0.01-1000 ng/mL, LOD 8.5 pg/mL; immobilized aptamer; CRP incubation 4 °C, 1 h on BSA-blocked aptamer electrode; wash 0.01 M PBS pH 7.4; ECL read in 3 mM TPA, 0.01 M PBS pH 7.4, room temperature. The conditions noted are these: protein: commercial; chain copies: 5.

Chain of carcinoembryonic antigen (CEA) (P06731 35-685): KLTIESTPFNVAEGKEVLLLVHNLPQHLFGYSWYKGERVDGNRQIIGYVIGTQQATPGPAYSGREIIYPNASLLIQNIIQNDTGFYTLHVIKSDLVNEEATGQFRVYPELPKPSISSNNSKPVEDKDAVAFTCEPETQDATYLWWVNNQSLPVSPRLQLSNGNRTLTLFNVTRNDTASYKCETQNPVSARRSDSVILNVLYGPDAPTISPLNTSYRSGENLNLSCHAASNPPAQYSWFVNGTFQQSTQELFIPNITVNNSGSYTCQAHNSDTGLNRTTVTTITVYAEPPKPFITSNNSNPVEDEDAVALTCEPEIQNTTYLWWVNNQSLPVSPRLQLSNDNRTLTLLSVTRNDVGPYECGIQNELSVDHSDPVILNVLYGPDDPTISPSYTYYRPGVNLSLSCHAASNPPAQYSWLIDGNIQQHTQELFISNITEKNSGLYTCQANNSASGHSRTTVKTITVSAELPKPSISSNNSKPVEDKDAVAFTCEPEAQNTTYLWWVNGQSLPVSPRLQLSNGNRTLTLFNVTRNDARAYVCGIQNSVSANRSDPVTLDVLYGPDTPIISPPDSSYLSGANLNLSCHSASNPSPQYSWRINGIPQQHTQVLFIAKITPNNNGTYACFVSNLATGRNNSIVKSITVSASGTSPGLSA
Chain of carbohydrate antigen 15-3 (CA15-3) (P15941 24-1097): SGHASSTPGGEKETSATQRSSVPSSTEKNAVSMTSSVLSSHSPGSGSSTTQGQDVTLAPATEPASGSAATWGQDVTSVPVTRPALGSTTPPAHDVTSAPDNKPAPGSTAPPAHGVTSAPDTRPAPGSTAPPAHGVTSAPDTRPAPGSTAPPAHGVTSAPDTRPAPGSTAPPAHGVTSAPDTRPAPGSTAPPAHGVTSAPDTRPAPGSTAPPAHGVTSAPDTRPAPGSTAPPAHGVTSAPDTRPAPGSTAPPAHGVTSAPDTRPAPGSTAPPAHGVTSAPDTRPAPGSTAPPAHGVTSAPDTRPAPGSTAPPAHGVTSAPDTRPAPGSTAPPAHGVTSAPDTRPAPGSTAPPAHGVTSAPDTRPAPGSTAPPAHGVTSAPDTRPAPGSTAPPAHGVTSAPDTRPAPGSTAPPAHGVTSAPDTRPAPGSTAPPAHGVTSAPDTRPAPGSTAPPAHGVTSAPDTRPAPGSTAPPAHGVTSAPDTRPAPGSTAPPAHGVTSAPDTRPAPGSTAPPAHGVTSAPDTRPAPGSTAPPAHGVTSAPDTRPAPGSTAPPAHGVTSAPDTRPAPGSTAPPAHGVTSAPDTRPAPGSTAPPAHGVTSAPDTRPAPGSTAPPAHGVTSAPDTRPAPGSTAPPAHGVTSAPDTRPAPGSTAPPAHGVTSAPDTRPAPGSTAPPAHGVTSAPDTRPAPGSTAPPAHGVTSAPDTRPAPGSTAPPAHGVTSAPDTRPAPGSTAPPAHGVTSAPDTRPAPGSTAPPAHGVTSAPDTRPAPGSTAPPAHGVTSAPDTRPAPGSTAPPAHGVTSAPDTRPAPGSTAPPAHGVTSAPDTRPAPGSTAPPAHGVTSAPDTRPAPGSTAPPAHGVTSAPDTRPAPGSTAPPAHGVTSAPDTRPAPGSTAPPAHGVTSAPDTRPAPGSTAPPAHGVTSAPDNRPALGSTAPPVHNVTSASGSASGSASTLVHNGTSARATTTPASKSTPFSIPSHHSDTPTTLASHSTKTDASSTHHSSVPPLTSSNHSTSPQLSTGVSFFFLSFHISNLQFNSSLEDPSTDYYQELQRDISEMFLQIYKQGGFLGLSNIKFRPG

On to CGAAGGGGATTCGAGGGGTGATTGCGTGCTCCATTTGGTG (ssDNA, 5'-NH2) [CRP aptamer], for which the binding result in series [1] is “no binding”; in series [2], “no binding”; in the series with C-reactive protein (CRP) it was “binds”.

Source of the values: publication PMC10708393, “The Fabrication of a Probe-Integrated Electrochemiluminescence Aptasensor Based on Double-Layered Nanochannel Array with Opposite Charges for the Sensitive Determination of C-Reactive Protein”.
